The results in this text go back to paper PMC3335016, “Analysis of the Nse3/MAGE-Binding Domain of the Nse4/EID Family Proteins” (PLoS ONE, 2012).

First the molecules themselves.
B1: EID2 WT peptide (aa 197-217) [modified: biotin, linked via the SGSG spacer; biotin, linked via the SGSG spacer] [human] / His-S-MAGEC2(129-339) [human] (parent complex)
chain 1: QRNPHRVDLDILTFTIALTAS
chain 2: GLPDSESSFTYTLDEKVAELVEFLLLKYEAEEPVTEAEMLMIVIKYKDYFPVILKRAREFMELLFGLALIEVGPDHFCVFANTVGLTDEGSDDEGMPENSLLIIILSVIFIKGNCASEEVIWEVLNAVGVYAGREHFVYGEPRELLTKVWVQGHYLEYREVPHSSPPYYEFLWGPRAHSESIKKKVLEFLAKLNNTVPSSFPSWYKDALKD

Variants of B1 are the subject of this experiment. As to the kind of experiment: PEPSCAN-ELISA; parent: 100; read off a plot.
Take chain 1 QRNAHRVDLDILTFTIALTAS [chain 1 P4A]: the percent of parent was ~45%.

chain 1 QRNPHRVDLDILAFTIALTAS [chain 1 T13A]: the percent of parent was ~46%.

With chain 1 QRNPHRVDLDILTFAIALTAS [chain 1 T15A], the percent of parent is ~67%.

chain 1 QRAPHRVDLDILTFTIALTAS [chain 1 N3A]: the percent of parent is ~58%.

In the case of chain 1 QRNPARVDLDILTFTIALTAS [chain 1 H5A], the percent of parent is ~38%.

chain 1 QRNPHRADLDILTFTIALTAS [chain 1 V7A]: the percent of parent was ~34%.

As for chain 1 QRNPHRVALDILTFTIALTAS [chain 1 D8A], the percent of parent is ~86%.
